The text below walks through data of patent US20200392225A1 (Novartis, published 2020).

The target of experiment [1] is T1, constitutively active human NPR1 mutant (W74R), recombinant antigen (human, UniProt P16066 33-473).
T1 construct: also called W74R hNPR1
T1 sequence: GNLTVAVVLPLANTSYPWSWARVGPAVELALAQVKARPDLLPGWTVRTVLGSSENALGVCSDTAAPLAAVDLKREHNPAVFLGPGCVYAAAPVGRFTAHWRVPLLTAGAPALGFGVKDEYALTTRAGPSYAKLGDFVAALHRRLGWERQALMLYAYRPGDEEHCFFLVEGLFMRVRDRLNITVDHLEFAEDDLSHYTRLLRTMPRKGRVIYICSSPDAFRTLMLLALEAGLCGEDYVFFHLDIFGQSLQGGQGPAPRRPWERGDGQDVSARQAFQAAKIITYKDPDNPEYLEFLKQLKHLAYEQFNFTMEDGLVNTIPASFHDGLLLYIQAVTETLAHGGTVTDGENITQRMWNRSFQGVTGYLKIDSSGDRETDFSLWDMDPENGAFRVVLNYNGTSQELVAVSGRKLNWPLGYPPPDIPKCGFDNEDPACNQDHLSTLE
The experiment can be described thus: ELISA, IgG titrated on the antigen without ANP. In general terms: In an ELISA, binding on a coated surface is turned into a signal by an enzyme label.

Experiment [2] concerns the target T2, human NPR1 expressed on CHO-K1 cells (human, UniProt P16066 33-1061).
T2 construct: also called hNPR1 CHO K1; human NPR1 expressing CHO-K1 cells
T2 sequence: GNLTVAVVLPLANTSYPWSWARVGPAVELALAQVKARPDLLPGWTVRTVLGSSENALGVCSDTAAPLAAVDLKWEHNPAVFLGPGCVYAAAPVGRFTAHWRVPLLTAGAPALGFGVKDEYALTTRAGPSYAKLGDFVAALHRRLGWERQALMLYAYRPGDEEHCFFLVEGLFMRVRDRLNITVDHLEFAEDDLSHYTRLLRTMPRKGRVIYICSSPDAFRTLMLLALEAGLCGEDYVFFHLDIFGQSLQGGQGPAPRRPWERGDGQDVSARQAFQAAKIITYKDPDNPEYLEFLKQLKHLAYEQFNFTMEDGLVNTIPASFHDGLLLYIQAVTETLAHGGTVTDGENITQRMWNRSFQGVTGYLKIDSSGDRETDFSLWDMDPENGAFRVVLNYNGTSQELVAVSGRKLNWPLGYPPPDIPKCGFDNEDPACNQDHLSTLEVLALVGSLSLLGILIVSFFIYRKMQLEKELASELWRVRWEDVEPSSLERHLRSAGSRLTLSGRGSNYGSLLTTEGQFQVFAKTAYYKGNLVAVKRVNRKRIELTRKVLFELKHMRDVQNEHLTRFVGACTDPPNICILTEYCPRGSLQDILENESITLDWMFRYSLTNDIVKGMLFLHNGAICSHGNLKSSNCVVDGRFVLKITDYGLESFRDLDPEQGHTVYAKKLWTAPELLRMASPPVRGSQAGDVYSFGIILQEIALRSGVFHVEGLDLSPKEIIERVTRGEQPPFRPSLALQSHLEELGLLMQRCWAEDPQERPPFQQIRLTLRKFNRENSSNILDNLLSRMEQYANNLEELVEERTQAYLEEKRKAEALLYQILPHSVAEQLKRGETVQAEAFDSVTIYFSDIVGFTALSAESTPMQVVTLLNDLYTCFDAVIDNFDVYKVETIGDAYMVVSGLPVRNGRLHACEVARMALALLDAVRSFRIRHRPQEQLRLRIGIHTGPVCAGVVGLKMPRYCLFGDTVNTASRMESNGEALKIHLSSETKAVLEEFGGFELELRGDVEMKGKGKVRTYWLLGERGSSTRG
The experiment can be described thus: flow cytometry, hNPR1 expressing CHO-K1 cells without ANP.

B1: WW01 IgG (WW01_LALA) (antibody, V domains shown)
VH: QVQLLESGGGLVQPGGSLRLSCAASGFTFNTHYIHWVRQAPGKGLEWVSSISGSGSNTYYADSVKGRFTISRDNSKNTLYLQMNSLRAEDTAVYYCARERGYVYYHMFDPWGQGTLVTVSS
VL: DIVLTQSPATLSLSPGERATLSCRASQSITRNYLAWYQQKPGQAPRLLIYGASSRATGIPARFSGSGSGTDFTLTISSLEPEDFAVYYCQQHSMYPRTFGQGTKVEIKR
As to B1, the binding result in experiment [1] was “no binding (tested: 1000 nM)”.

B2: YY03 IgG (YY03_LALA) (antibody, V domains shown)
VH: EVQLLESGGGLVQPGGSLRLSCAASGFTFSSYAISWVRQAPGKGLEWVSAISGSGGSTYYAESVKGRFTISRDNSKNTLYLQMNSLRAEDTAVYYCARESGYVYYLKFDYWGQGTLVTVSS
VL: DIQMTQSPSSLSASVGDRVTITCRASQSISSYLNWYQQKPGKAPKLLIYAASSLQSGVPSRFSGSGSGTDFTLTISSLQPEDFATYYCQQHVRVPITFGQGTKVEIKR
With B2, in experiment [2], the binding result is “no binding (tested: 1000 nM)”.
